The data set deals with the molecule itself. As to the kind of experiment: crystal structure; ligand-free enzyme; sitting drops, 15 mg/mL protein preincubated with 1 mM Acetyl-CoA and 5 mM DTT, 0.1 M Sodium cacodylate pH 6.5, 1.7 M Sodium acetate, 4 °C; P212121, two molecules per asymmetric unit; 2.9 Å.

One protein from publication PMC4442680, “Crystal structure of human nicotinic acid phosphoribosyltransferase” (FEBS Open Bio, 2015) can be followed below.

For orientation: stoichiometry N means the number of molecules, sites or subunits per partner or assembly.

B1: human nicotinic acid phosphoribosyltransferase (enzyme, UniProt Q6XQN6 1-538, looked up)
chain: MAAEQDPEARAAARPLLTDLYQATMALGYWRAGRARDAAEFELFFRRCPFGGAFALAAGLRDCVRFLRAFRLRDADVQFLASVLPPDTDPAFFEHLRALDCSEVTVRALPEGSLAFPGVPLLQVSGPLLVVQLLETPLLCLVSYASLVATNAARLRLIAGPEKRLLEMGLRRAQGPDGGLTASTYSYLGGFDSSSNVLAGQLRGVPVAGTLAHSFVTSFSGSEVPPDPMLAPAAGEGPGVDLAAKAQVWLEQVCAHLGLGVQEPHPGERAAFVAYALAFPRAFQGLLDTYSVWRSGLPNFLAVALALGELGYRAVGVRLDSGDLLQQAQEIRKVFRAAAAQFQVPWLESVLIVVSNNIDEEALARLAQEGSEVNVIGIGTSVVTCPQQPSLGGVYKLVAVGGQPRMKLTEDPEKQTLPGSKAAFRLLGSDGSPLMDMLQLAEEPVPQAGQELRVWPPGAQEPCTVRPAQVEPLLRLCLQQGQLCEPLPSLAESRALAQLSLSRLSPEHRRLRSPAQYQVVLSERLQALVNSLCAGQSP
notes: human nicotinic acid phosphoribosyltransferase (EC 2.4.2.11); also called human NaPRTase; hNaPRTase
With B1, the “stoichiometry N” value is 2.
